Test results from the nanobody polyreactivity screen of Harvey et al. (2022).

Assay: yeast display, Sf9 membrane polyspecificity reagent, FACS + sequencing; frameworks hold sequencing errors
How it was run: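 A synthetic nanobody library was expressed on Saccharomyces cerevisiae BJ5465 by galactose induction for 36–48 hours. The library was stained for 1 hour at 4 °C with 10% biotinylated, detergent-solubilized Sf9 membrane reagent and enriched with streptavidin microbeads before FACS. Low and high (top ~1%) gates were set on anti-HA fluorescence for expression and streptavidin fluorescence for reagent binding, and each polyreactivity label reflects the gate of origin.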

Sequence	polyreactivity (PSR sort gate)
QVQLVESGGGLVQAGGSLRLSCAASGSTFGLYVMGWYRQAPGKERELVAAISWSGGSTYYADSVKGRFTISRDTAKNTVYLQMNSLKPEDTAVYYCAKVFRTYRYPYGYWGQGTQVTVSS	high polyreactivity
QVQLVESGGGLVQAGGSLRLSCAASGSTFGNYAMGWDRQAPGKERELVAAITSSGRTYYADSVKGRFTISRDNAKNTVYFQMNSLKPEDTAVYYCAAKSSRGGSVGFDYWGQGTQVTVSS	high polyreactivity
QVQLVESGGGLVQAGGSLRLSCAASGSTFGNYAMGWYRQATGKERELVAASRWSGTRTFYADSVKGRFTISRDNAKNTVYLQMNSLKPEDTAVYYCNAVYSQPGYKGGYSWGQGTQVTVSS	high polyreactivity
QVQLVESGGGLVQAGGSLRLSCAASGSTFGPNTMGWYRQAPGKERELVAAINLRGGRTYYADSVKGRFTISRDNAKNTVYLQMNSLKPEDTAVYYCAARFKTTGYDYWGQGTQVTVSS	high polyreactivity
QVQLVESGGGLVQAGGSLRLSCAASGSTFGPYAMGWYRQAPGKERELVAAIRSDGGTYYADSVTGRFTISRDNAKNTVYLQMNSLKPEDTAVYYCNAVPVGWRYRQYDYWGQGPQVTVSS	high polyreactivity
QVQLVESGGGLVQAGGSLRLSCAASGSTFGPYAMGWYRQAPGKERELVADITVSDGSTYYADSVKGRFTISRDNAKNTVYLQMNSLKPEDTAVYYCAAEIYYSFGYWGQGTQVTVSS	low polyreactivity
QVQLVESGGGLVQAGGSLRLSCAASGSTFGPYAMGWYRQAPGKERELVATIRGSGATTYYADSVKGRFTISRDNAKNTVYLQMHSLKPEDTAVYYCATAYFSGWYNRYGRATSYDYWGQGTQVTVSS	high polyreactivity
QVQLVESGGGLVQAGGSLRLSCAASGSTFGQYAMGWYRQAPGKELELVAAISSGGRTNYADSVKGRFTISRDNAKNPVYLQMNSLKPEDTAVYYCAARYYFPFRRFRRMDYWGQGTQVTVSS	high polyreactivity
QVQLVESGGGLVQAGGSLRLSCAASGSTFGRNAMGWYIQAPGKERELVAAISNRGGRTYYADSVKARFTISRDNAKNTVYFQMNSLKPEDTAVYYCAAEHRVQQGDYWGQGTQVTVSS	high polyreactivity
QVQLVESGGGLVQAGGSLRLSCAASGSTFGRNAMGWYRQAPGKEREFVAAISSRGGRTSYADSVKGRFTISRDNAKNTVYLQMNSLKPEDTAVYYCATLGYFSASRTDYDYWGQGTQVTVSS	low polyreactivity
QVQLVESGGGLVQAGGSLRLSCAASGSTFGRNAMGWYRQAPGKERELVAAISKTGGSTYYADSVKGRFTISRDNAKNTVYLQMNSLKPEDTAVYYCAARIRGFRTYYYWGQGTQVTVSS	high polyreactivity
QVQLVESGGGLVQAGGSLRLSCAASGSTFGRNAMGWYRQAPGKERELVAAISSGGRTYYADSVKGRFTISRDNAKNTVYLQMNSLKPEDTAVYYCARDDYGTLVKLYVRGFNYWGQGTQVTVSS	low polyreactivity
QVQLVESGGGLVQAGGSLRLSCAASGSTFGRNARGWYRQAPGKERELVAAITASGGTTYYADSVKGRFTISRDNAKNTVYLQMNSLKPEDTAVYYCNVSYLVYRWNFGWSMDFWGQGTQLTVSS	low polyreactivity
QVQLVESGGGLVQAGGSLRLSCAASGSTFGRNTMGWYRQAPGKERELVAAITSGDTTTYADSVKGRFTISRDNAKNTVYLQMNSLKPEDTAVYYCAVDPVRGRDYSWMDYWGQGTQVTVSS	low polyreactivity
QVQLVESGGGLVQAGGSLRLSCAASGSTFGRNVIGWYRQAPGKERELVAAISIRGGSTYYADSVKGRFTISRDIAKNTVYLQMNSLKPEDTAVYYCALDYPTDAYDYWGQGTQVTVSS	low polyreactivity
QVQLVESGGGLVQAGGSLRLSCAASGSTFGRYAMGWYRPAPGKGRELDGAISRRGGSTYYADSVKGRFTISRDYAMKTVYFQMHSLKPEDTAVYDCATGYPIELGREFDYWGQGIQVTVSS	high polyreactivity

Sequence	polyreactivity (PSR sort gate)
QVQLVESGGGLVQAGGSLRLSCAASGSTFGRYVMGWYRPAPGKERELVAAISKNAGSTYYADSVKGRFTISRDNAKNTVYLQMNSLKPEDTAVYYCNAQSFREYGYWGQGTQVTVSS	high polyreactivity
QVQLVESGGGLVQAGGSLRLSCAASGSTFGSNAMGWYRQAPGKEREFVAAITWSGGSTYYADSVKGRFTISRDNAKNTVYLQMNSLKPEDTAVYYCAAESDSYFREYDYWGQGTQVTVSS	low polyreactivity
QVQLVESGGGLVQAGGSLRLSCAASGSTFGSNAMGWYRQAPGKERELVAAISSSGSTYYADSVKGRFTISRDNAKNTVYLQMNSLKPEDTAVYYSAAPGSPYGYWGQGTQVTVSW	high polyreactivity
QVQLVESGGGLVQAGGSLRLSCAASGSTFGSNAMGWYRQAPGKERELVATITRRSGSTYYADSVKGRFTISRDNAKNTVYLQMNSLKPEDTAVYYCARVGFWLQYDYWGQGTQVTVSS	high polyreactivity
QVQLVESGGGLVQAGGSLRLSCAASGSTFGSYAMGWYRQAPGKERELVAAISWNGGRTYYADSVKGRFTISRDNAKNTVYFQRNSLKPEDTAVYYCAKVVKYQSGGGLEYWGQGTQVTVSS	high polyreactivity
QVQLVESGGGLVQAGGSLRLSCAASGSTFGSYTMGWYRQPPGKERELVAAINWSGGNTYYADSVKGRFTISRDNAKNTVYLQMNSLKPEDTAVYYCAAAFYIYGFEGDYWGQGTQVTVSS	low polyreactivity
QVQLVESGGGLVQAGGSLRLSCAASGSTFGSYVMGWYRQAPGKERELVAAIRWSGTSTYYADSVKGRFTISRDNAKNTVYLQLNSLKPEDTAVYYCNATPNYNRGDHTPMDYWGQGTQVTVSS	low polyreactivity
QVQLVESGGGLVQAGGSLRLSCAASGSTFGTNAMGWYRQAPGKEREFVASIRKSGGSTYYADSVKGRFTISRDNSKNTVYLQMNSLKPEDTAVYYCAAVYRRYLGGGYDYWGQGTQVTVSS	high polyreactivity
QVQLVESGGGLVQAGGSLRLSCAASGSTFGTNAMGWYRQAPGKEREFVASISVSGGSTYYADSVKGRFTISRDNAKNTVYLQMNSLKPEDTAVYYCNRRAYRRYQFGYWGQGTQVTVSS	high polyreactivity
QVQLVESGGGLVQAGGSLRLSCAASGSTFGTNAMGWYRQAPGKERELVAAITYSGGRTYYADSVKGRFTISRDNAKNTVYLQMNSLKPEDTAVYYCAATFGFFYYQYEYWGLGTQVTVSS	low polyreactivity
QVQLVESGGGLVQAGGSLRLSCAASGSTFGTYAMGWYRQAPGKERELVASIDNSTSGTYYADSVKGRFTISRDNAKNTVYLQMNSLKPEDTAVYYCAATPLVDGSSIPREGDYWGQGTQVTVSS	low polyreactivity
QVQLVESGGGLVQAGGSLRLSCAASGSTFGTYAQGCYRQAPVKDRELVAAITYSTGNTYDADSVKGRFTISRDNAKNTVYLQMNSLKPEDTAVYYCALEYVYDYFWMDYWGQGTQVTVSS	high polyreactivity
QVQLVESGGGLVQAGGSLRLSCAASGSTFGTYTMGWYRPAPGKERELVAAISNRGGTYYADSVKGRFTISRDNAKNTVYLQMNSMKPEDTAVYYCAVARRWGYDYWGQGTQVTVSS	high polyreactivity
QVQLVESGGGLVQAGGSLRLSCAASGSTFGVNAMGWSRQAPGKERELVAVITRSGGSTYYADSVKGRFTISRDNAKNTVFLQMNSLIPEDTAVYYCAKSGVVDWGQGTQVTVSS	low polyreactivity
QVQLVESGGGLVQAGGSLRLSCAASGSTFGVNAMGWYRQAPGKERELVAGISSGTSTYYADSVKGRFTISRDNAKNTVYLQMNSLKPEDTAVYYCATRWSYRYGYWGQGTQVTVSS	high polyreactivity
QVQLVESGGGLVQAGGSLRLSCAASGSTFGVNTMGWYRQAPGKERELVAAITKSGGSTYYADSVKGRFTISRDNAKNTVYLQMNSLKPEDTAVYYCNTDYGRYLYYRYGYWGQGTQVTVSS	low polyreactivity
